Test results as given in EP4786492A1.
Changes are numbered by the printed parent chain.

B1: Hab015VL5VH1b-hFc (scFv, part only; not given: VL-VH linker and human IgG1 Fc, V domains shown, not shown: another chain or arm of the molecule; a dimerising Fc or GST; small tags and cut ends)
VL: NIQMTQSPSSLSASVGDRVTITCKASENVGTYVSWYQQKPGKSPKLLIYGASNRYTGVPSRFSGSGSGTDFTLTISSLQPEDFATYYCGQFYSFPSTFGGGTKVEIK
VH: EVQLVESGGGLVKPGGSLRLSCAASGITFSNFWMNWVRQAPGKGLEWVGQIRLKSEDYATHYAESVKGRFTISREDSKNTVYLQMNSLKTEDTAVYYCTTGYYFDYWGQGTTVTVSS
B2: Hab015VL5VH1a-hFc (scFv, part only; not given: scFv linker and human IgG1 Fc, V domains shown, not shown: another chain or arm of the molecule; a dimerising Fc or GST; small tags and cut ends)
VL: B1 VL
VH: B1 VH with E56D

Target: human delta-like ligand 3 (DLL3) on SHP77 cells (human) (UniProt Q9NYJ7)
Sequence (Q9NYJ7 27-618, stated change not applied): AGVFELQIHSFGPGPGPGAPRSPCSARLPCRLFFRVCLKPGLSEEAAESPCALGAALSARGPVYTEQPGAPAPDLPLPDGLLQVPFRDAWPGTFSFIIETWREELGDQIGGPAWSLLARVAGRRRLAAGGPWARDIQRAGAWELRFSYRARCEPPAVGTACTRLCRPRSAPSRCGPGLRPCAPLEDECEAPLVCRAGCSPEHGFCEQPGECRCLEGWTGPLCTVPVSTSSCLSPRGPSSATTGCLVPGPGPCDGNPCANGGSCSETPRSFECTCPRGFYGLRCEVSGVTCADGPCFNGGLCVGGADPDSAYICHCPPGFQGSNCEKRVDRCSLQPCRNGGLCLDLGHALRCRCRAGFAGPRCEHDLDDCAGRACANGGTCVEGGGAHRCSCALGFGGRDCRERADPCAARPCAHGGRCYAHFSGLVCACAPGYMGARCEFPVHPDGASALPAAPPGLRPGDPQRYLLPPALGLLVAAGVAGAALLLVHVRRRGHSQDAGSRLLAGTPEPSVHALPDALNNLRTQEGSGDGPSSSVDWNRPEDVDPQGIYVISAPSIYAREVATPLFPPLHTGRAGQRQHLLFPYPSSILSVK
Test: FACS on SHP77 cells

Point of comparison: B1, MFI at 0.00128 nM 102 MFI. Against it:
- B2 — the same, 102 MFI

Point of comparison: B2, MFI at 0.0064 nM 122 MFI. Against it:
- B1 — lower, 118 MFI

Point of comparison: B1, MFI at 0.032 nM 178 MFI. Against it:
- B2 — higher, 185 MFI

Point of comparison: B2, MFI at 0.16 nM 343 MFI. Against it:
- B1 — higher, 356 MFI

Point of comparison: B1, MFI at 0.8 nM 632 MFI. Against it:
- B2 — lower, 612 MFI

Point of comparison: B2, MFI at 4 nM 768 MFI. Against it:
- B1 — lower, 714 MFI

Point of comparison: B1, MFI at 20 nM 844 MFI. Against it:
- B2 — higher, 907 MFI

Point of comparison: B1, MFI at 100 nM 1030 MFI. Against it:
- B2 — higher, 1140 MFI

Target: DLL3 endogenously expressed on NCI-H82 cells (UniProt Q9NYJ7)
Sequence (Q9NYJ7 27-618): as the sequence (Q9NYJ7 27-618, stated change not applied) above
Test: FACS on NCI-H82 cells; antibody 4 nM

Point of comparison: B1, MFI 745. Against it:
- B2 — higher, 867

Target: DLL3 endogenously expressed on NCI-H82 cells (UniProt Q9NYJ7)
Test: FACS on NCI-H82 cells; antibody 20 nM

Point of comparison: B1, MFI 838. Against it:
- B2 — higher, 1100

Target: DLL3 endogenously expressed on NCI-H82 cells (UniProt Q9NYJ7)
Test: FACS on NCI-H82 cells; antibody 0.8 nM

Point of comparison: B2, MFI 811. Against it:
- B1 — lower, 711

Target: DLL3 endogenously expressed on NCI-H82 cells (UniProt Q9NYJ7)
Test: FACS on NCI-H82 cells; antibody 100 nM

Point of comparison: B2, MFI 1220. Against it:
- B1 — lower, 983

Target: DLL3 endogenously expressed on NCI-H82 cells (UniProt Q9NYJ7)
Test: FACS on NCI-H82 cells; antibody 0.16 nM

Point of comparison: B2, MFI 478. Against it:
- B1 — lower, 426

Target: human DLL3 protein expressed on CHO-K1 recombinant cells (human DLL3 extracellular segment fused to EpCAM transmembrane and intracellular regions) (human) (UniProt Q9NYJ7)
Sequence (Q9NYJ7 other isoform, or with tags, fused parts or gaps limits assumed): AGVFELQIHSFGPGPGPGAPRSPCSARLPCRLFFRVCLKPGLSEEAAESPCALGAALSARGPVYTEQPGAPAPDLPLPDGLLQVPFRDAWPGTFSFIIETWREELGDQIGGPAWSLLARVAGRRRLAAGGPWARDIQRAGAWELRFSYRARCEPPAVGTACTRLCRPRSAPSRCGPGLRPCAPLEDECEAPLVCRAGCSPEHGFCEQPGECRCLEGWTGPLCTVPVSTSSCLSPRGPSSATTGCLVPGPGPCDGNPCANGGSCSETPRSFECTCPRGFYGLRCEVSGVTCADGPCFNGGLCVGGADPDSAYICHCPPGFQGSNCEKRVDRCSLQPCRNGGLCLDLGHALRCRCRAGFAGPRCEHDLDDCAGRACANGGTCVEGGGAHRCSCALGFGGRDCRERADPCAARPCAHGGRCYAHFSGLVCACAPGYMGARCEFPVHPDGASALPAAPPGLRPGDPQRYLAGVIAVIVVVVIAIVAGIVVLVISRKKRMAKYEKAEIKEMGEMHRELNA
Test: FACS, CHO-K1 hDLL3 cells, 4 nM antibody

Point of comparison: B1, MFI 10300 MFI. Against it:
- B2 — higher, 10600 MFI

Target: mouse DLL3 on CHO-K1-mDLL3 cells (mouse) (UniProt O88516)
Sequence (O88516 other isoform, or with tags, fused parts or gaps limits assumed): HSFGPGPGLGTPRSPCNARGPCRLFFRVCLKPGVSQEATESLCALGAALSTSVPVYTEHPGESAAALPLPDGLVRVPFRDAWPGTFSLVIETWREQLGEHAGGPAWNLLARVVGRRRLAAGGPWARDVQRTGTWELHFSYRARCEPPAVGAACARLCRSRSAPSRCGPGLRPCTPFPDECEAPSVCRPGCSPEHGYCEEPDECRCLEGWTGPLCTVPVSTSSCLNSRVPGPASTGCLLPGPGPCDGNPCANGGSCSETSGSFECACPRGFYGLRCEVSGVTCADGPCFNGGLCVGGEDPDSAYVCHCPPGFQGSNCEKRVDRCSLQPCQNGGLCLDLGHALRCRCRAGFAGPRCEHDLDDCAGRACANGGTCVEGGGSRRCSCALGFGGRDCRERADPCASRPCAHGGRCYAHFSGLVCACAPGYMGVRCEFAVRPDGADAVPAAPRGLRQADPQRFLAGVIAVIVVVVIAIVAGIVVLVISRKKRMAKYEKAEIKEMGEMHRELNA
Test: FACS, CHO-K1-mDLL3 cells, 4 nM antibody

Point of comparison: B2, MFI 1200 MFI. Against it:
- B1 — lower, 1160 MFI

Target: DLL3 endogenously expressed on NCI-H82 cells (UniProt Q9NYJ7)
Test: FACS on NCI-H82 cells; antibody 0.032 nM

Point of comparison: B1, MFI 212. Against it:
- B2 — higher, 219

Target: human DLL3 protein expressed on CHO-K1 recombinant cells (human DLL3 extracellular segment fused to EpCAM transmembrane and intracellular regions) (human) (UniProt Q9NYJ7)
Test: FACS, CHO-K1 hDLL3 cells, 20 nM antibody

Point of comparison: B1, MFI 11500 MFI. Against it:
- B2 — higher, 11800 MFI

Target: mouse DLL3 on CHO-K1-mDLL3 cells (mouse) (UniProt O88516)
Test: FACS, CHO-K1-mDLL3 cells, 20 nM antibody

Point of comparison: B2, MFI 1290 MFI. Against it:
- B1 — higher, 1350 MFI

Target: DLL3 endogenously expressed on NCI-H82 cells (UniProt Q9NYJ7)
Test: FACS on NCI-H82 cells; antibody 0.0064 nM

Point of comparison: B2, MFI 137. Against it:
- B1 — higher, 139

Target: human DLL3 protein expressed on CHO-K1 recombinant cells (human DLL3 extracellular segment fused to EpCAM transmembrane and intracellular regions) (human) (UniProt Q9NYJ7)
Test: FACS, CHO-K1 hDLL3 cells, 0.8 nM antibody

Point of comparison: B1, MFI 4100 MFI. Against it:
- B2 — higher, 4310 MFI

Target: human DLL3 protein expressed on CHO-K1 recombinant cells (human DLL3 extracellular segment fused to EpCAM transmembrane and intracellular regions) (human) (UniProt Q9NYJ7)
Test: FACS, CHO-K1 hDLL3 cells, 100 nM antibody

Point of comparison: B2, MFI 12000 MFI. Against it:
- B1 — lower, 11800 MFI

Target: mouse DLL3 on CHO-K1-mDLL3 cells (mouse) (UniProt O88516)
Test: FACS, CHO-K1-mDLL3 cells, 0.8 nM antibody

Point of comparison: B2, MFI 922 MFI. Against it:
- B1 — lower, 884 MFI

Target: mouse DLL3 on CHO-K1-mDLL3 cells (mouse) (UniProt O88516)
Test: FACS, CHO-K1-mDLL3 cells, 100 nM antibody

Point of comparison: B2, MFI 1550 MFI. Against it:
- B1 — lower, 1460 MFI

Target: DLL3 endogenously expressed on NCI-H82 cells (UniProt Q9NYJ7)
Test: FACS on NCI-H82 cells; antibody 0.00128 nM

Point of comparison: B2, MFI 118. Against it:
- B1 — higher, 121

Target: human DLL3 protein expressed on CHO-K1 recombinant cells (human DLL3 extracellular segment fused to EpCAM transmembrane and intracellular regions) (human) (UniProt Q9NYJ7)
Test: FACS, CHO-K1 hDLL3 cells, 0.16 nM antibody

Point of comparison: B2, MFI 936 MFI. Against it:
- B1 — higher, 980 MFI

Target: mouse DLL3 on CHO-K1-mDLL3 cells (mouse) (UniProt O88516)
Test: FACS, CHO-K1-mDLL3 cells, 0.16 nM antibody

Point of comparison: B2, MFI 393 MFI. Against it:
- B1 — lower, 361 MFI

Target: human DLL3 protein expressed on CHO-K1 recombinant cells (human DLL3 extracellular segment fused to EpCAM transmembrane and intracellular regions) (human) (UniProt Q9NYJ7)
Test: FACS, CHO-K1 hDLL3 cells, 0.032 nM antibody

Point of comparison: B2, MFI 330 MFI. Against it:
- B1 — higher, 341 MFI

Target: monkey DLL3 on CHO-K1-cyno DLL3 cells (cynomolgus monkey)
Sequence (chain, as listed by the source limits assumed): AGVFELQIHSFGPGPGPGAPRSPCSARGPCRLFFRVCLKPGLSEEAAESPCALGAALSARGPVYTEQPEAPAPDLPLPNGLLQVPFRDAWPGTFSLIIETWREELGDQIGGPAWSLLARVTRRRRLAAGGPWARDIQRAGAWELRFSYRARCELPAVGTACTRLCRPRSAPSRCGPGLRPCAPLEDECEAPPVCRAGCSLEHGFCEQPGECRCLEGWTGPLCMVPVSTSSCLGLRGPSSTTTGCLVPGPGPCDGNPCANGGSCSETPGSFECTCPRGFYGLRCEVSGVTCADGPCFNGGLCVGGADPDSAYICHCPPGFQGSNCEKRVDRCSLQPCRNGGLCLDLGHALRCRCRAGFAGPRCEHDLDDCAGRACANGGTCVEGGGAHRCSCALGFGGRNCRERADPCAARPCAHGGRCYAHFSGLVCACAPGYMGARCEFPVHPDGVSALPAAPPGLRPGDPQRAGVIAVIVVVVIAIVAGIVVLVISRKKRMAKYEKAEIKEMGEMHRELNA
Test: FACS, CHO-K1-cyno DLL3 cells, 4 nM antibody

Point of comparison: B2, MFI 6660 MFI. Against it:
- B1 — lower, 6500 MFI

Target: mouse DLL3 on CHO-K1-mDLL3 cells (mouse) (UniProt O88516)
Test: FACS, CHO-K1-mDLL3 cells, 0.032 nM antibody

Point of comparison: B1, MFI 186 MFI. Against it:
- B2 — higher, 195 MFI

Target: human DLL3 protein expressed on CHO-K1 recombinant cells (human DLL3 extracellular segment fused to EpCAM transmembrane and intracellular regions) (human) (UniProt Q9NYJ7)
Test: FACS, CHO-K1 hDLL3 cells, 0.0064 nM antibody

Point of comparison: B1, MFI 174 MFI. Against it:
- B2 — lower, 160 MFI

Target: monkey DLL3 on CHO-K1-cyno DLL3 cells (cynomolgus monkey)
Test: FACS, CHO-K1-cyno DLL3 cells, 20 nM antibody

Point of comparison: B2, MFI 7040 MFI. Against it:
- B1 — lower, 6970 MFI

Target: mouse DLL3 on CHO-K1-mDLL3 cells (mouse) (UniProt O88516)
Test: FACS, CHO-K1-mDLL3 cells, 0.0064 nM antibody

Point of comparison: B2, MFI 131 MFI. Against it:
- B1 — the same, 131 MFI

Target: human DLL3 protein expressed on CHO-K1 recombinant cells (human DLL3 extracellular segment fused to EpCAM transmembrane and intracellular regions) (human) (UniProt Q9NYJ7)
Test: FACS, CHO-K1 hDLL3 cells, 0.00128 nM antibody

Point of comparison: B2, MFI 129 MFI. Against it:
- B1 — higher, 137 MFI

Target: monkey DLL3 on CHO-K1-cyno DLL3 cells (cynomolgus monkey)
Test: FACS, CHO-K1-cyno DLL3 cells, 0.8 nM antibody

Point of comparison: B1, MFI 4140 MFI. Against it:
- B2 — higher, 4340 MFI

Target: monkey DLL3 on CHO-K1-cyno DLL3 cells (cynomolgus monkey)
Test: FACS, CHO-K1-cyno DLL3 cells, 100 nM antibody

Point of comparison: B2, MFI 7380 MFI. Against it:
- B1 — lower, 7310 MFI

Target: mouse DLL3 on CHO-K1-mDLL3 cells (mouse) (UniProt O88516)
Test: FACS, CHO-K1-mDLL3 cells, 0.00128 nM antibody

Point of comparison: B2, MFI 121 MFI. Against it:
- B1 — higher, 122 MFI

Target: monkey DLL3 on CHO-K1-cyno DLL3 cells (cynomolgus monkey)
Test: FACS, CHO-K1-cyno DLL3 cells, 0.16 nM antibody

Point of comparison: B1, MFI 1140 MFI. Against it:
- B2 — higher, 1190 MFI

Target: monkey DLL3 on CHO-K1-cyno DLL3 cells (cynomolgus monkey)
Test: FACS, CHO-K1-cyno DLL3 cells, 0.032 nM antibody

Point of comparison: B2, MFI 415 MFI. Against it:
- B1 — lower, 410 MFI

Target: monkey DLL3 on CHO-K1-cyno DLL3 cells (cynomolgus monkey)
Test: FACS, CHO-K1-cyno DLL3 cells, 0.0064 nM antibody

Point of comparison: B2, MFI 178 MFI. Against it:
- B1 — higher, 195 MFI

Target: monkey DLL3 on CHO-K1-cyno DLL3 cells (cynomolgus monkey)
Test: FACS, CHO-K1-cyno DLL3 cells, 0.00128 nM antibody

Point of comparison: B1, MFI 140 MFI. Against it:
- B2 — lower, 131 MFI

Target: human DLL1 protein (Acro, Cat. No. DL1-H52H8) (human) (UniProt O00548)
Sequence (O00548 18-540 limits assumed): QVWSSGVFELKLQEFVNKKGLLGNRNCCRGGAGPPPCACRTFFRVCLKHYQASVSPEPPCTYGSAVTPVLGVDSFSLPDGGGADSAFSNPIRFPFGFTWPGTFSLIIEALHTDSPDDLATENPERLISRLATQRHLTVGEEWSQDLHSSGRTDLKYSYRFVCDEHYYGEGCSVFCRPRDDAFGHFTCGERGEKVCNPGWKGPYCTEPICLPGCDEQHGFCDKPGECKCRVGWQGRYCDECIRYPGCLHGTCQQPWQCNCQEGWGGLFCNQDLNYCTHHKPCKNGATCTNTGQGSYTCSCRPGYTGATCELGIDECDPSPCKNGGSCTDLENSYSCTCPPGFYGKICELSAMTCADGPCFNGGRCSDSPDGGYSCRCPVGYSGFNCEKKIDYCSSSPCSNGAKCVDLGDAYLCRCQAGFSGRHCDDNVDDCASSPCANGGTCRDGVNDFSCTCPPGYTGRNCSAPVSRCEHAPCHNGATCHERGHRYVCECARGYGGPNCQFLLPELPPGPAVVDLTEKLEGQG
Test: ELISA, coated hDLL1; maximum over 0.1, 1, 10, 100 nM antibody

Point of comparison: B1, Emax of OD450 nm binding value 0.43 OD450 nm. Against it:
- B2 — higher, 0.47 OD450 nm

Target: human DLL4 protein (Acro, Cat. No. DL4-H5227) (human) (UniProt Q9NR61)
Sequence (Q9NR61 27-524 limits assumed): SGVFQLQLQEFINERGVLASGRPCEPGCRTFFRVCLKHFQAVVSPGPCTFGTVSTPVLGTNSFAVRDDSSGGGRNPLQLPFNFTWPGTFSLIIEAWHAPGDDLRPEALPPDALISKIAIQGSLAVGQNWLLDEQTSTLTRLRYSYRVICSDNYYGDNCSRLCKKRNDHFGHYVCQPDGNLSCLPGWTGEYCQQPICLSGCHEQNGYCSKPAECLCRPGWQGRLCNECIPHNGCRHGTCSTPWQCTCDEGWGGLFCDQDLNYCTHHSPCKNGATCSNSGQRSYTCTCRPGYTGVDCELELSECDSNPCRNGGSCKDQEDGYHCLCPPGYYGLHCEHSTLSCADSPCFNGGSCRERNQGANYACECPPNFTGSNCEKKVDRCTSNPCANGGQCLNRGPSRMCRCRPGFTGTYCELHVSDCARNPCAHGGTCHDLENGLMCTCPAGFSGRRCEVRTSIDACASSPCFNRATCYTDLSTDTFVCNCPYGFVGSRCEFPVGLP
Test: ELISA, coated hDLL4; maximum over 0.1, 1, 10, 100 nM antibody

Point of comparison: B1, Emax of OD450 nm binding value 0.67 OD450 nm. Against it:
- B2 — higher, 0.71 OD450 nm
